{"source": "the DeepSol protein solubility set", "data": [{"assay": "soluble on expression in E. coli; label from the status in PepcDB or PDB records", "values": [{"sequence": "GMRVDKHEVRVGELAAGQPLSLPVYRFKGKGAGPSVYIQANVHGAEVQGNAVIYQLMKLLEHYELLGDISLVPLANPLGINQKSGEFTLGRFDPITGVNWNREYLDHGFNIEVWYQEHSHLDDDTLITAFRATLVEECARRLNNPWGVTTGHRLAVTLQSMAHRADIVLDLHTGPKSCKHLYCPEYERSAAQYFSIPYTLLIPNSFGGAMDEAAFVPWWTLAEVASSHGRELGVRVSALTLELGSQERIDLDDALEDAEGILAYLSHRGVIAETVLPKPMKRYGCFLKNYRKFHAPKAGMVEYLGKVGVPMKATDPLVNLLRLDLYGTGEELTVLRLPEDGVPILHFASASVHQGTELYKVMTKVFEL", "soluble on expression in E. coli": "soluble"}, {"sequence": "GMSIYNSIGKQYSQTRVPDIRIVNAIINLLNLPKGSVIADIGAGTGGYSVALANQGLFVYAVEPSIVMRQQAVVHPQVEWFTGYAENLALPDKSVDGVISILAIHHFSHLEKSFQEMQRIIRDGTIVLLTFDIRLAQRIWLYDYFPFLWEDALRFLPLDEQINLLQENTKRRVEAIPFLLPHDLSDLFAAAAWRRPELYLKAEVRAGISSFALANQDLVEKGLELLTADLNNGEWIRKYGEIHHLQEIDIGYRFIYTTLDK", "soluble on expression in E. coli": "soluble"}, {"sequence": "GMTAPTLSRAAMEKVIRTYYDGCNEADEAKMIACFVPEAVHYFPAGMYGGAFRGAAQIAHRWRTAVETLGSYWTIDALVIDAETAEAAIEWTHFKTNQDKVLRGAECVEFDRASGLIREIRAFYASPQAEGIARLELGDFDYAGRGYRVTSPRKPA", "soluble on expression in E. coli": "soluble"}, {"sequence": "GMTDAPADAPLDADARRAVKPVICYPNDSLPRPDLALYRAARASARKTGEVLVPPREGRCFEVKAGQFFRISSVEGPQVGDLNLHNLHDLTERFFSGKTRALHGTHVTTGERLWSNLPYLRPMATIIEDTLGWYGIDQYGGSVHDVIGTRCDPYTGNLLAGGHYHHCCHSNLTRALADHTGLPLHEAEMLVHDVLNVFMCTGFTRDTGQYFMKASPVRPGDYLEFFAEIDLLGNLSACPGGDCSSEHSSDTASCHPLLVEIFAPAEGMLGDWPSPSVNGYDRSHGR", "soluble on expression in E. coli": "soluble"}, {"sequence": "GMTKIRKIAVFIEETRIEAGREISPPTRKAVAVAVIENPFAGRYVEDLTELMDTGAELGALLGERCVQALGIRPEQAESYGKSAMVGENGELEHAAAILHPKLGAPLRKAVEKGAALVPSSKKMGSPGQVLDVPLGHKDAAYVRSHFDGIEVRLNDAPRANEIMVAVAVTDSGRPLPRVGGLTHDAAEGKDGLR", "soluble on expression in E. coli": "soluble"}, {"sequence": "GMTSSFTDYCKFFNRILSEVQETQEQAIIKGAHLVSEAVMNGGRFYVFGSGHSHMIAEEIYNRAGGLALVTAILPPELMLHERPNKSTYLERIEGLSKSYLKLHQVTNKDVIMIISNSGRNTVPVEMAIESRNIGAKVIAMTSMKHSQKVTSRHKSGKKLYEYADVVLDNGAPVGDAGFQIANSEIYSGATSDSIGCFLAQALIVETLHLLVQQGFEPPVFKSSNVDGADLYNDKIFNEYVKW", "soluble on expression in E. coli": "soluble"}, {"sequence": "GMTSTSITAVEYQSKRLESRLLKETREYVIALPEGYAQSLEAYPVVYLLDGEDQFDHMASLLQFLSQGTMPQIPKVIIVGIHNTNRMRDYTPTHTLVLPSGNKGNPQYQHTGGAGRFLDFIEKELAPSIESQLRTNGINVLVGHSFGGLVAMEALRTDRPLFSAYLALDTSLWFDSPHYLTLLEERVVKGDFKQKQLFMAIANNPLSPGFGVSSYHKDLNLAFADKLTKLAPKGLGFMAKYYPEETHQSVSHIGLYDGIRHLFKDFAIDIYSDSFSKQQVIDQYGVLSERFGHKVTPSQQYLEQLIQYSDRQQLTERKQMLEGLRQHFAKD", "soluble on expression in E. coli": "soluble"}, {"sequence": "GMTTWKELTDNNPAHSENYAQRWRNLAAAGNDIYGEARLIDAMAPRGAKILDAGCGQGRIGGYLSKQGHDVLGTDLDPILIDYAKQDFPEARWVVGDLSVDQISETDFDLIVSAGNVMGFLAEDGREPALANIHRALGADGRAVIGFGAGRGWVFGDFLEVAERVGLELENAFESWDLKPFVQGSEFLVAVFTKK", "soluble on expression in E. coli": "soluble"}, {"sequence": "GMVEKPQLKFKSPIDNSESHPFIPLLKEKPNALKPLSESLRLVDDDENNPSHYPHPYEYEIDHQEYSPEILQIREEIPSKSWDDSVPIWVDTSTELESMLEDLKNTKEIAVDLEHHDYRSYYGIVCLMQISTRERDYLVDTLKLRENLHILNEVFTNPSIVKVFHGAFMDIIWLQRDLGLYVVGLFDTYHASKAIGLPRHSLAYLLENFANFKTSKKYQLADWRIRPLSKPMTAAARADTHFLLNIYDQLRNKLIESNKLAGVLYESRNVAKRRFEYSKYRPLTPSSEVYSPIEKESPWKILMYQYNIPPEREVLVRELYQWRDLIARRDDESPRFVMPNQLLAALVAYTPTDVIGVVSLTNGVTEHVRQNAKLLANLIRDALRNIKNTNEEATPIPSSETKADGILLET", "soluble on expression in E. coli": "soluble"}, {"sequence": "GNPLRKFKLVFLGEQSVGKTSLITRFMYDSFDNTYQATIGIDFLSKTMYLEDRTVRLQLWDTAGLERFRSLIPSYIRDSTVAVVVYDITNVNSFQQTTKWIDDVRTERGSDVIIMLVGNKTDLADKRQVSIEEGERKAKELNVMFIETSAKAGYNVKQLFRRVAAALPGMESTQDRSREDMIDIKLEK", "soluble on expression in E. coli": "soluble"}, {"sequence": "GNYPRNVGLSPLSGVDPSEVFDVTPYAVATDKYFIKNATTYHLPRKLKVSYSNCYTDTAHCSIQDLGFVATLKNDEPYFRVFLGGGLGKQPKVALELDELIKPKDALYCVEGMIKFFMDYGNYENKNRARVRYMVESLGEELFLEKFKEYYKLEKENGSLELNI", "soluble on expression in E. coli": "not soluble"}, {"sequence": "GPGGALPTCPACHKITPRTEAPVSSVSNSLENALHTSAHSTEESLPKRPLGKHSKVSVEKIDLKGLSHTKNDRNVECSFEVLWSDSSITSVTKSSSEVTEFISKLCQLYPEENLEKLIPCLAGPDAFYVERNHVDLDSGLRYLASLPSHVLKNDHVRRFLSTSSPPQQLQSPSPGNPSLSKVGTVMGVSGRPVCGVAGIPSSQSGAQHHGQHPAGSAAPLPHCSHAGSAGSALAYRTQMDTSPAILMPSSLQTPQTQEQNGILDWLRKLRLHKYYPVFKQLSMEKFLSLTEEDLNKFESLTMGAKKKLKTQLELEKEKSERRCLNPSAPPLVTSSGVARVPPTSHVGPVQSGRGSHAAELRVEVEQPHHQLPREGSSSEYSSSSSSPMGVQAREESSDSAEENDRRVEIHLESSDKEKPVMLLNHFTSSSARPTAQVLPVQNEASSNPSGHHPLPPQMLSAASHITPIRMLNSVHKPERGSADMKLLSSSVHSLLSLEERNKGSGPRSSMKVDKSFGSAMMDVLPASAPHQPVQVLSGLSESSSMSPTVSFGPRTKVVHASTLDRVLKTAQQPALVVETSTAATGTPSTVLHAARPPIKLLLSSSVPADSAISGQTSCPNNVQISVPPAIINPRTALYTANTKVAFSAMSSMPVGPLQGGFCANSNTASPSSHPSTSFANMATLPSCPAPSSSPALSSVPESSFYSSSGGGGSTGNIPASNPNHHHHHHHQQPPAPPQPAPPPPGCIVCTSCGCSGSCGSSGLTVSYANYFQHPFSGPSVFTFPFLPFSPMCSSGYVSAQQYGGGSTFPVVHAPYSSSGTPDPVLSGQSTFAVPPMQNFMAGTAGVYQTQGLVGSSNGSSHKKSGNLSCYNCGATGHRAQDCKQPSMDFNRPGTFRLKYAPPAESLDSTD", "soluble on expression in E. coli": "soluble"}, {"sequence": "GPGSHQIRLLPLTDGFGDASMAGGTSAKIVSPMPGKVSKFLVNSGDFVEKGQALMIVEAMKMEHPVKALQDGQVSFLVKEGEVVGSDHVLATVVQKE", "soluble on expression in E. coli": "soluble"}, {"sequence": "GPGSMAGVLHETATTVSYRGALCKLAGVELQGINLSPPQRLCQLELLISREINWLAAVLEEWEEKYMLFTCVPYRGVVDAFTTLLRTIKRHLETENSSKDNEKEWDALLASSITEFQVEVMEIGKGKSY", "soluble on expression in E. coli": "soluble"}, {"sequence": "GPGSMAKWNALSAEIEAARASGDHTKLLAHVHVGLQMLQEIGATNAPIQCESLLCMEASQAHYKMMQYDEALQCAERACESLLRGCKAELQDKAQIAEIEVFMGFVLCKQGGHSAAVEAQELLQKVLHWIDVDAKSAMPMQAVAAVNLRRSVLTGLGLSTTVQATTLASKGETAEAKVLYAKGLDTLIEALNQHIDENDVELVKMTLEAILTSFEGLDDVSQAVATCRKYISWCRRHDDASGVADGESMLTALCARQKIENPLEAEKAKETEEATK", "soluble on expression in E. coli": "soluble"}, {"sequence": "GPGSMDDRSLKLAEDFVSARYIDAGRESLRSTARILRSILAQRCCPDEGLTDAAIELILRQLSLMDTNNFARHVGGGEREGRVVSALVRMRHFHLTHGVGRSGDLFSEQPKAAGSSLLYKITNVLMLDLIRQAGAPSTAAAVVVPMA", "soluble on expression in E. coli": "not soluble"}]}]}
